From patent publication US20020182673A1

How the values were obtained:
[1] = target: recombinant IL-17E (baculovirus, His-tag removed by thrombin) (human); experiment: SPR (BIAcore 1000), IL-17E immobilised, IL-17RH1 ECD in solution, 1:1 model
[2] = target: IL-17RH1 (PRO5801) ECD (residues 1-275), baculovirus, His-tag removed (human); experiment: SPR (BIAcore 1000), IL-17RH1 ECD immobilised, IL-17E in solution, 1:1 model

IL-17RH1 (PRO5801) ECD (residues 1-275), baculovirus, His-tag removed (receptor)
Kd [1]: 1.1 nM | koff [1]: 0.0007 s⁻¹ | kon [1]: 670000 M⁻¹ s⁻¹

recombinant IL-17E (baculovirus, His-tag removed by thrombin) (ligand)
Kd [2]: 1.4 nM | koff [2]: 0.00062 s⁻¹ | kon [2]: 430000 M⁻¹ s⁻¹
